Results on one substance are retold here after PMC8230527, “Structural and Biochemical Characterization of a Dye-Decolorizing Peroxidase from Dictyostelium discoideum” (International Journal of Molecular Sciences, 2021).

The target of test [1] is Dictyostelium discoideum dye-decolorizing peroxidase DyPA (Dictyostelium discoideum). Description: AUC; sedimentation velocity, 50,000 rpm, 20 °C, 50 mM Tris-HCl pH 8.0, 150 mM NaCl; heme-reconstituted DyPA at 2.1, 6.3, 18.9 and 33.6 µM (monomer concentrations); dimer, no monomer-dimer equilibrium seen in this range.
For test [2] the target is unchanged. Description: AUC; sedimentation velocity, 50,000 rpm, 20 °C, 50 mM Tris-HCl pH 8.0, 150 mM NaCl; 20 µM apo-DyPA with a heme saturation of only 7%.

As to “Dictyostelium discoideum dye-decolorizing peroxidase DyPA (enzyme)”, in test [1], the percent of the protein sedimenting as the dimer species came out at 90% and the stoichiometry N worked out at 2. The substance also gave a stoichiometry N in test [2] of 2.
